Tested on: peptide library, one residue held at a place counted from the S/T acceptor
Experiment: relative phosphorylation of the sub-library (ratio to the mean residue at this position); higher = residue favoured
Conditions: human
Procedure, shortened: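 Each biotinylated degenerate peptide sub-library fixed one residue at one position around a central Ser/Thr and was incubated with a purified recombinant kinase, a human or orthologue construct, in 384-well plates. The 90 min reactions, under kinase-specific conditions, contained 50 μM peptide and 50 μM ATP spiked with γ-32P-ATP. Phosphorylation was read by phosphorimaging spots on streptavidin membranes and quantifying them by densitometry. Relative sub-library phosphorylation expresses each value as a ratio to the mean residue at that position.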

GAK, construct: aa24-359, sequence (O14976 24-359, looked up): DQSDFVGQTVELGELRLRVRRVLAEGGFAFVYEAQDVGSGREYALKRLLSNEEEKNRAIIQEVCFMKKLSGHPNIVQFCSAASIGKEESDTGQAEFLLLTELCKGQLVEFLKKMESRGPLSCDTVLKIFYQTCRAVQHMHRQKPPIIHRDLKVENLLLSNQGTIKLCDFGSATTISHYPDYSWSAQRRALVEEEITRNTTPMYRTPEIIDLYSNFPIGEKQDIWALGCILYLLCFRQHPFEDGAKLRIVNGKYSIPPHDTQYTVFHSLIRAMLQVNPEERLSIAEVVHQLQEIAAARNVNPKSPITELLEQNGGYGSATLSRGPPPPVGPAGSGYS
NEK7, construct: Full length, sequence (Q8TDX7 whole entry, looked up): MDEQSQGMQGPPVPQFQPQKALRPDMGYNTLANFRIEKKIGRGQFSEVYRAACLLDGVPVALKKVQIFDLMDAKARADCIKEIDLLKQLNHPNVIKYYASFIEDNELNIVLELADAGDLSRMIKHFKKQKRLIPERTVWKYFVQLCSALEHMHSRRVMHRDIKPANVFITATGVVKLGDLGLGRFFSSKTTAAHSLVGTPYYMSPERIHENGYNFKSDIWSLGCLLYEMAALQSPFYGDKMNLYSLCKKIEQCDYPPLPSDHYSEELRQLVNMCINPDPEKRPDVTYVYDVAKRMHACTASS

NEK7, construct: Full length (from UniProt Q8TDX7)
relative phosphorylation
Conditions | at +1 | at +2 | at +3 | at +4 | at -1 | at -2 | at -3 | at -4 | at -5
A fixed | 0.653 | 1.05 | 0.923 | 0.86 | 1.05 | 1.12 | 0.975 | 1.02 | 1.07
D fixed | 0.327 | 0.61 | 0.66 | 0.722 | 1.29 | 2.31 | 0.65 | 1.91 | 1.83
E fixed | 0.267 | 0.376 | 0.597 | 0.747 | 1.42 | 1.8 | 0.583 | 1.28 | 1.43
F fixed | 1.54 | 0.717 | 1.21 | 0.846 | 0.646 | 0.87 | 1.94 | 0.839 | 0.989
G fixed | 0.827 | 1.12 | 1.28 | 1.18 | 0.713 | 1.4 | 0.853 | 1.05 | 0.972
H fixed | 1.16 | 1.38 | 1.21 | 1.11 | 1.12 | 1.3 | 0.755 | 1.03 | 1.06
I fixed | 1.28 | 0.812 | 0.957 | 0.919 | 0.569 | 0.433 | 0.494 | 0.647 | 0.831
K fixed | 0.588 | 1.47 | 1.24 | 1.3 | 1.34 | 0.625 | 0.446 | 0.82 | 0.842
L fixed | 1.18 | 0.549 | 1.1 | 0.895 | 1.02 | 0.718 | 2.39 | 0.832 | 0.771
M fixed | 1.78 | 0.693 | 0.899 | 0.948 | 1.03 | 0.973 | 1.46 | 0.823 | 0.703
N fixed | 1 | 1.63 | 0.833 | 0.907 | 1.22 | 1.47 | 0.705 | 1.35 | 1.15
P fixed | 0.242 | 0.691 | 0.703 | 1.09 | 0.234 | 0.356 | 1.3 | 0.918 | 0.886
Q fixed | 1.33 | 0.933 | 0.813 | 0.986 | 1.52 | 0.951 | 0.628 | 0.889 | 0.938
R fixed | 0.865 | 2.1 | 1.08 | 1.16 | 1.21 | 0.626 | 0.652 | 0.959 | 0.878
V fixed | 1.05 | 0.905 | 0.889 | 0.846 | 0.901 | 0.372 | 0.538 | 0.613 | 0.8
W fixed | 1.47 | 0.94 | 1.58 | 1.46 | 0.908 | 0.859 | 1.4 | 1.23 | 1.1
Y fixed | 1.44 | 1.02 | 1.02 | 1.02 | 0.796 | 0.822 | 1.23 | 0.78 | 0.754
pThr fixed | 0.701 | 0.607 | 0.62 | 0.842 | 0.624 | 1 | 0.973 | 1.15 | 0.979
pTyr fixed | 0.816 | 0.62 | 0.836 | 0.681 | 1.68 | 1.6 | 1.12 | 0.861 | 1.12

GAK, construct: aa24-359 (from UniProt O14976)
relative phosphorylation
Conditions | at +1 | at +2 | at +3 | at +4 | at -1 | at -2 | at -3 | at -4 | at -5
A fixed | 0.783 | 1.19 | 0.848 | 0.882 | 0.845 | 0.985 | 0.819 | 0.986 | 0.954
D fixed | 0.647 | 0.954 | 0.997 | 0.884 | 0.75 | 0.753 | 0.898 | 1.14 | 1.08
E fixed | 0.658 | 0.86 | 1.05 | 0.891 | 0.653 | 0.778 | 0.912 | 1.49 | 1.03
F fixed | 0.643 | 0.918 | 0.862 | 1.02 | 0.904 | 0.801 | 0.709 | 0.856 | 0.879
G fixed | 5.69 | 1.37 | 1.28 | 0.908 | 0.974 | 1.08 | 0.888 | 0.947 | 0.831
H fixed | 0.829 | 1.13 | 1.19 | 0.96 | 1.13 | 1.13 | 1.11 | 1.11 | 1.1
I fixed | 0.588 | 0.741 | 0.822 | 0.849 | 0.824 | 0.879 | 0.935 | 0.852 | 1.06
K fixed | 0.766 | 1.08 | 1.21 | 1.21 | 2.28 | 1.1 | 1.43 | 1.12 | 1.09
L fixed | 0.615 | 0.801 | 0.914 | 0.987 | 0.808 | 0.994 | 1.01 | 0.83 | 0.802
M fixed | 0.649 | 0.792 | 0.825 | 0.896 | 0.813 | 1.06 | 1.07 | 0.875 | 0.853
N fixed | 0.841 | 1.28 | 1.22 | 0.913 | 0.973 | 1.65 | 1.17 | 0.941 | 0.978
P fixed | 0.729 | 0.736 | 0.801 | 0.834 | 1.23 | 0.687 | 0.751 | 0.69 | 0.696
Q fixed | 0.696 | 1.1 | 1.05 | 1 | 0.965 | 1.22 | 1.16 | 1.04 | 0.853
R fixed | 0.833 | 1.26 | 1.2 | 1.34 | 1.3 | 1.28 | 1.43 | 1.14 | 1.15
V fixed | 0.59 | 0.902 | 0.974 | 0.882 | 0.914 | 0.86 | 0.901 | 0.959 | 1
W fixed | 0.769 | 1.03 | 0.82 | 1.59 | 0.803 | 0.848 | 0.849 | 1.03 | 1.05
Y fixed | 0.672 | 0.831 | 0.931 | 0.947 | 0.838 | 0.9 | 0.959 | 0.998 | 1.6
pThr fixed | 0.904 | 1.95 | 1.38 | 1.44 | 1.22 | 1.63 | 1.69 | 1.55 | 1.23
pTyr fixed | 0.674 | 0.963 | 0.94 | 0.772 | 0.884 | 1.09 | 1.27 | 1.23 | 1.27

Reference: the supplement of paper PMC9876800
